# Test results: article PMC4894655, “Three proliferating cell nuclear antigen homologues from Metallosphaera sedula form a head-to-tail heterotrimer” (Scientific Reports, 2016)
# T1: SsoPCNA2 (Sulfolobus solfataricus)
# T1 chain: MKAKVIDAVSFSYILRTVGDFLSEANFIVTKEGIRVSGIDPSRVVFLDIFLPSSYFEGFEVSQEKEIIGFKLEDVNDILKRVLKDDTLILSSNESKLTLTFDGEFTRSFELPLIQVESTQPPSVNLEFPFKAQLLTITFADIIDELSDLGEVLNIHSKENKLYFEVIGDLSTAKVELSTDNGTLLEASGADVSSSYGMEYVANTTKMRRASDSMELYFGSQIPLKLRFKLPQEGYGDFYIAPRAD
# T2: MsePCNA2 (Metallosphaera sedula, UniProt A4YHP5 1-244)
# T2 chain: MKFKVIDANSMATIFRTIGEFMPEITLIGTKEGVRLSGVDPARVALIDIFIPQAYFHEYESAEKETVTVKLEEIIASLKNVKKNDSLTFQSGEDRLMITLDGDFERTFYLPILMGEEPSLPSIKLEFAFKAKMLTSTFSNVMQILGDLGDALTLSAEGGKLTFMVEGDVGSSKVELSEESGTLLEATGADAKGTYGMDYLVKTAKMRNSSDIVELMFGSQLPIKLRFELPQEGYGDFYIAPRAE
# What was measured:
# SsoPCNA2 [1] = target: T1, SsoPCNA2; experiment: SPR; 5 nM SsoPCNA1
# MsePCNA2 [2] = target: T2, MsePCNA2; experiment: SPR; 5 nM SsoPCNA1
# SsoPCNA2 [3] = target: T1, SsoPCNA2; experiment: SPR; 5 nM SsoPCNA1
# SsoPCNA2 [4] = target: T1, SsoPCNA2; experiment: SPR; 10 nM SsoPCNA1
# MsePCNA2 [5] = target: T2, MsePCNA2; experiment: SPR; 10 nM SsoPCNA1
# SsoPCNA2 [6] = target: T1, SsoPCNA2; experiment: SPR; 20 nM SsoPCNA1
# MsePCNA2 [7] = target: T2, MsePCNA2; experiment: SPR; 20 nM SsoPCNA1
# SsoPCNA2 [8] = target: T1, SsoPCNA2; experiment: SPR; 40 nM SsoPCNA1
# SsoPCNA2 [9] = target: T1, SsoPCNA2; experiment: SPR; 75 nM SsoPCNA1
# MsePCNA2 [10] = target: T2, MsePCNA2; experiment: SPR; 75 nM SsoPCNA1
# MsePCNA2 [11] = target: T2, MsePCNA2; experiment: SPR; 10 nM SsoPCNA1
# SsoPCNA2 [12] = target: T1, SsoPCNA2; experiment: SPR; 20 nM SsoPCNA1
# MsePCNA2 [13] = target: T2, MsePCNA2; experiment: SPR; 20 nM SsoPCNA1
# MsePCNA2 [14] = target: T2, MsePCNA2; experiment: SPR; 40 nM SsoPCNA1
# MsePCNA2 [15] = target: T2, MsePCNA2; experiment: SPR; 75 nM SsoPCNA1
# SsoPCNA2 [16] = target: T1, SsoPCNA2; experiment: SPR; 2.5 nM SsoPCNA1
# MsePCNA2 [17] = target: T2, MsePCNA2; experiment: SPR; 2.5 nM SsoPCNA1
# SsoPCNA2 [18] = target: T1, SsoPCNA2; experiment: SPR; 2.5 nM SsoPCNA1
# MsePCNA2 [19] = target: T2, MsePCNA2; experiment: SPR; 2.5 nM SsoPCNA1
# SsoPCNA2 [20] = target: T1, SsoPCNA2; experiment: SPR; 0.61 nM SsoPCNA1
# MsePCNA2 [21] = target: T2, MsePCNA2; experiment: SPR; 0.61 nM SsoPCNA1
# SsoPCNA2 [22] = target: T1, SsoPCNA2; experiment: SPR; 0.61 nM SsoPCNA1
# MsePCNA2 [23] = target: T2, MsePCNA2; experiment: SPR; 0.61 nM SsoPCNA1
# SsoPCNA2 [24] = target: T1, SsoPCNA2; experiment: SPR; Biacore; about 350 RU of MsePCNA2 or SsoPCNA2 immobilised on Sensor Chip CM5; MsePCNA1 or SsoPCNA1 injected (2.5, 5, 10, 20, 40 nM), kinetic fit; 10 mM HEPES-HCl pH 7.4, 150 mM NaCl
binder,measurement,setting,value
SsoPCNA1 (natural protein) MFKIVYPNAKDFFSFINSITNVTDSIILNFTEDGIFSRHLTEDKVLMAIMRIPKDVLSEYSIDSPTSVKLDVSSVKKILSKASSKKATIELTETDSGLKIIIRDEKSGAKSTIYIKAEKGQVEQLTEPKVNLAVNFTTDESVLNVIAADVTLVGEEMRISTEEDKIKIEAGEEGKRYVAFLMKDKPLKELSIDTSASSSYSAEMFKDAVKGLRGFSAPTMVSFGENLPMKIDVEAVSGGHMIFWIAPRL,koff,SsoPCNA2 [1],0.000173 s⁻¹
same,koff,MsePCNA2 [2],0.000505 s⁻¹
same,Kd,SsoPCNA2 [3],0.602 nM
same,koff,SsoPCNA2 [4],0.000182 s⁻¹
same,koff,MsePCNA2 [5],0.000501 s⁻¹
same,koff,SsoPCNA2 [6],0.000163 s⁻¹
same,koff,MsePCNA2 [7],0.000472 s⁻¹
same,koff,SsoPCNA2 [8],0.000134 s⁻¹
same,koff,SsoPCNA2 [9],3.07e-05 s⁻¹
same,koff,MsePCNA2 [10],9.46e-05 s⁻¹
same,Kd,MsePCNA2 [11],1.57 nM
same,Kd,SsoPCNA2 [12],0.116 nM
same,Kd,MsePCNA2 [13],2.67 nM
same,Kd,MsePCNA2 [14],1.63 nM
same,Kd,MsePCNA2 [15],2.14 nM
same,koff,SsoPCNA2 [16],0.000171 s⁻¹
same,koff,MsePCNA2 [17],0.000512 s⁻¹
same,Kd,SsoPCNA2 [18],0.473 nM
same,Kd,MsePCNA2 [19],1.41 nM
same,koff,SsoPCNA2 [20],0.000172 s⁻¹
same,koff,MsePCNA2 [21],0.000528 s⁻¹
same,Kd,SsoPCNA2 [22],0.383 nM
same,Kd,MsePCNA2 [23],1.21 nM
same,Kd,SsoPCNA2 [24],0.65 nM
same,koff,SsoPCNA2 [24],0.00015 s⁻¹
same,kon,SsoPCNA2 [24],250000 M⁻¹ s⁻¹
